Laboratory results from article PMC10229650 (Nature Communications, 2023).

Biological target: T1, recombinant, soluble murine Jagged1 (mouse, UniProt Q9QXX0)
T1 construct: Jagged1, mouse, recombinant soluble form; also called recombinant mouse Jagged1
Assay: ELISA; plates coated with 500 ng/mL recombinant soluble murine Jagged1 in PBS; antibodies titrated 2000-15.63 ng/mL in PBSTM, 1.5 h at RT; detected with ALP-conjugated goat anti-murine Fc
Conditions: both partners purified

T1 sequence (Q9QXX0 34-1067): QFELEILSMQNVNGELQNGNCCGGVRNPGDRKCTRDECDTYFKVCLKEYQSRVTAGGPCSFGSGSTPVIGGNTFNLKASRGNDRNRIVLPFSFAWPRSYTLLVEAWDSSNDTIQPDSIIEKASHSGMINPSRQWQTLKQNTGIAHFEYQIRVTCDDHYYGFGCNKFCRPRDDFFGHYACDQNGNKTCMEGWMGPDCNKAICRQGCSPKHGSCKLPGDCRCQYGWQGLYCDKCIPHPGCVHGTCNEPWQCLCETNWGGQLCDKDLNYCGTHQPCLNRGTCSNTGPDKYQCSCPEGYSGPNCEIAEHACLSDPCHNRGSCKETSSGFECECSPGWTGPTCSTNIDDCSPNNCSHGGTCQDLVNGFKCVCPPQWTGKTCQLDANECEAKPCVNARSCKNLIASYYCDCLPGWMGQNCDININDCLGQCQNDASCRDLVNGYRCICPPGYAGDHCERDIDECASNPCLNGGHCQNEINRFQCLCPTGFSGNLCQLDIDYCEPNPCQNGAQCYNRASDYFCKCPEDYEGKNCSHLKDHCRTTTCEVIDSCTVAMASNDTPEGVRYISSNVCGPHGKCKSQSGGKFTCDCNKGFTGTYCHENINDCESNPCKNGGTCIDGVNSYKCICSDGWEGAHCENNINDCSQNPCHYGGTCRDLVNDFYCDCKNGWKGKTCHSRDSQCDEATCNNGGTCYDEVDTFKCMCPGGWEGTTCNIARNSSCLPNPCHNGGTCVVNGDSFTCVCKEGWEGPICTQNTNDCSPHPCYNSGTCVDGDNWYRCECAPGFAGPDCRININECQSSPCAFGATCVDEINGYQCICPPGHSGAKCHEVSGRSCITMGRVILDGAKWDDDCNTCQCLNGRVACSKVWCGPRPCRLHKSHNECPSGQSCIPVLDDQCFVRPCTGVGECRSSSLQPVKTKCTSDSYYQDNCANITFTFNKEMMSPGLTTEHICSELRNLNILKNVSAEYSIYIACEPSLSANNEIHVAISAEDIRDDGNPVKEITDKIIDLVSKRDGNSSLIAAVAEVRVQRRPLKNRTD

B1: anti-JAG1.b70 mouse immunoglobulin G2a (mIgG2a), WT (antibody, V domains shown)
VH: EVQLVESGGGLVQPGGSLRLSCAASGFTFSNYGIHWVRQAPGKGLEWVGWITPDGGYTDYADSVKGRFTISADTSKNTAYLQMNSLRAEDTAVYYCARAGTLFAYWGQGTLVTVSS
VL: DIQMTQSPSSLSASVGDRVTITCRASQDVSTAVAWYQQKPGKAPKLLIYSASFLYSGVPSRFSGSGSGTDFTLTISSLQPEDFATYYCQQYYTTATTFGQGTKVEIK
notes: variable heavy domain of anti-JAG1.b70; constant domains of the mouse IgG2a heavy chain, wild type; variable light domain of anti-JAG1.b70; constant domain of the murine kappa light chain; Phage-display selected antibody in mIgG2a format; A batch provided by Genentech was used in animals; WT and PGLALA variants for the ELISAs were produced in HEK293E; The constant domains of the Fab in PDB 5BO1 …
binding result: binds

B2: anti-JAG1.b70 mIgG2a, PGLALA (P329G, L234A, L235A) (antibody, V domains shown)
VH: EVQLVESGGGLVQPGGSLRLSCAASGFTFSNYGIHWVRQAPGKGLEWVGWITPDGGYTDYADSVKGRFTISADTSKNTAYLQMNSLRAEDTAVYYCARAGTLFAYWGQGTLVTVSS
VL: DIQMTQSPSSLSASVGDRVTITCRASQDVSTAVAWYQQKPGKAPKLLIYSASFLYSGVPSRFSGSGSGTDFTLTISSLQPEDFATYYCQQYYTTATTFGQGTKVEIK
notes: variable heavy domain as in the heavy chain of m1; constant domains of the mouse IgG2a heavy chain with PGLALA in the CH2 domain; variable light domain as in the light chain of m1; constant domain of the murine kappa light chain; also called PGLALA-engineered anti-JAG1; effector-negative anti-JAG1; source: HEK293E, transient co-transfection, purified (anti-murine kLC CaptureSelect, SEC)
binding result: binds
